Reference: patent US20190016815A1 (TRACON PHARMACEUTICALS, published 2019)
Positions count from the first letter of the chain named. One block for each binder: values may come before it.

Experiments:
[1] = molecular target: T1, human CD105 (R&D Systems Cat. No. 1097-EN) (human, UniProt P17813 26-586); assay: competition ELISA on captured human CD105; unlabelled TRC205 against biotinylated TRC205 (55 ng/ml)
T1 construct: Bought protein, captured on the plate by mouse anti-human CD105 (Southern Biotechnologies 9811-01); also called human endoglin
T1 sequence (looked up): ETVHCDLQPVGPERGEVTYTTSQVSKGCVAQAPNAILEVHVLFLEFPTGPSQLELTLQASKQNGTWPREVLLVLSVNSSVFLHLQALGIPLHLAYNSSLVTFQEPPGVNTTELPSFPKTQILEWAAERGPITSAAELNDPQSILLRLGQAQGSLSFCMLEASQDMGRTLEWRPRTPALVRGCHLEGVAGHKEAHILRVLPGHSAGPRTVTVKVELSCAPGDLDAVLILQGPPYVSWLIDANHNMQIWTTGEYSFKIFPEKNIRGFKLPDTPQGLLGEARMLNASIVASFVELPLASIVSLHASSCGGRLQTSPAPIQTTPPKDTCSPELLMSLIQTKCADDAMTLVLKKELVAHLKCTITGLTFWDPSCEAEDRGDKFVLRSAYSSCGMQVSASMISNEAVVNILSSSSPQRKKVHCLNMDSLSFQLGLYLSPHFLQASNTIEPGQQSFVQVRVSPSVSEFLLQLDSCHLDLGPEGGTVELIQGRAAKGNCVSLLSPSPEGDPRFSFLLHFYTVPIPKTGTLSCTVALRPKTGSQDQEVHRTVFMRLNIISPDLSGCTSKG
Description: (§1) After washing three times with PBST, a three-fold dilution series of either human BMP9 (R&D Systems Cat. No. 3209-BP-010) (413 nM to 0.56 nM), or unlabelled TRC205 antibody (40 nM to 0.05 nM) or a single concentration of an irrelevant antibody (66 nM) was mixed with a fixed concentration of biotinylated TRC205 antibody (55 ng/ml) and added to the plate. Following incubation for 1 hour at room temperature, the plate was washed three times with PBST and binding of the biotinylated TRC205 antibody was detected using streptavidin-HRP (Sigma Cat. No. 55512) and TMB substrate (Sigma Cat. No. T0440). OD450 nm values were measured on a Dynex MRX TCII plate reader.

[2] = molecular target: T1, human CD105 (R&D Systems Cat. No. …); assay: competition ELISA on human CD105 captured on the plate (100 ng/ml); competitor: biotinylated chimeric anti-CD105 at 6.25 ng/ml; streptavidin-HRP, TMB, OD450
Description: FIGS. 6A-6F. Anti-CD105 competition ELISA with humanized and humanized/deimmunized antibodies. […] Binding was detected via streptavidin-HRP and TMB substrate. Absorbance (OD) at 450 nm was measured on a plate reader and this was plotted against the test antibody concentration. FIG. 6A provides the results from the chimeric control compared to VK1VH1, VK1VH2, VK2VH1 and VK2VH2. FIG. 6B provides the results from the chimeric control compared to VK1VH1, VK2AVH1A, VK2SAVH1Q, VK2SAVH1R and VK2SAVH1S. FIG. 6C provides the results from the chimeric control compared to VK2AAVH1A2, VK2ASVH1A2, VK2ASVH1Q, VK2SSVH1A and VK2SSVH1Q. FIG. 6D provides the results from the chimeric control compared to VK2VH1, VK2AAVH1A, VK2AAVH1Q, VK2AAVH1R and VK2AAVH1S. FIG. 6E provides the results from the chimeric control compared to VK2VH1, VK2ASVH1A, VK2ASVH1R, VK2ASVH1S, and VK2SAVH1A2. FIG. 6F provides the results from the chimeric control compared to VK2VH1, VK2SSVH1Q, VK2SSVH1A2, VK2SSVH1R and VK2SSVH1S.
Antibodies were tested in a competition ELISA for binding to CD105 against biotinylated chimeric anti-CD105. Briefly, chimeric anti-CD105 was biotinylated using a micro-biotinylation kit (Sigma, Catalog No. BTAG-1KT) following the manufacturer's instructions. […] Binding of the biotinylated chimeric antibody was detected via streptavidin-HRP (Sigma, Catalog No. 55512) and TMB substrate (Sigma, Catalog No. T0440). OD450 nm values were measured on a Dynex MRX TCII plate reader. The results of the competition analysis are illustrated in FIG. 6.

[3] = molecular target: T1, human CD105 (R&D Systems Cat. No. …); assay: competition ELISA on captured human CD105; human BMP9 against biotinylated TRC205 (55 ng/ml)
Description: as §1

- IC50 [1]: 0.26 µg/mL
B1: TRC205 antibody (antibody, IgG4, V domains shown)
VH: EVQLVESGGGLVKPGGSLRLSCAASGFTFSDAWMDWVRQAPGKGLEWVGEARSKASNHATYYAESVKGRFTISRDDSKNTLYLQMNSLKTEDTAVYYCTRWRRFFDSWGQGTLVTVSS
VL: DIQMTQSPSSLSASVGDRATITCRASSSVSYMHWYQQKPGKAPKPWAYATSNLASGVPSRFSGSGSGTDYTLTISSLQPEDFATYYCQQWSSNPLTFGGGTKVEIK
notes: IgG4); Biotinylated with a Lightning-Link kit for the direct ELISA and as the labelled tracer; also called biotinylated TRC205; unlabelled TRC205

- binding result [2]: binds
B2: VK2SSVH1R (antibody, V domains shown)
VH: B1 VH with A51I, K54R
VL: B1 VL with M4L, A19V, T22S, A47I, T50S

- binding result [2]: binds
B3: VK2ASVH1A (antibody, V domains shown)
VH: B1 VH with G49A, A51I
VL: B1 VL with M4L, A47I, T50S

- binding result [2]: binds
B4: VK2ASVH1R (antibody, V domains shown)
VH: B1 VH with A51I, K54R
VL: B1 VL with M4L, A47I, T50S

- IC50 [3]: 0.35 µg/mL
B5: human BMP9 (R&D Systems Cat. No. 3209-BP-010) (ligand, UniProt Q9UK05 320-429, looked up)
chain: SAGAGSHCQKTSLRVNFEDIGWDSWIIAPKEYEAYECKGGCFFPLADDVTPTKHAIVQTLVHLKFPTKVGKACCVPTKLSPISVLYKDDMGVPTLKYHYEGMSVAECGCR
notes: Bought protein
